Sequences and labels used below:
T1: human amylin receptor (Amylin 3(a) receptor: human calcitonin receptor co-expressed with RAMP-3) (human, UniProt P30988 25-474; O60896 24-148, limits assumed)
T1 construct: whole, on cells; Used as cell membranes prepared from the Amylin 3(a)/CRE-luc BHK cells (Assay V); the complex is called the human amylin receptor; also called hAmylin-R; hAmylinR
T1 sequence (looked up) 1: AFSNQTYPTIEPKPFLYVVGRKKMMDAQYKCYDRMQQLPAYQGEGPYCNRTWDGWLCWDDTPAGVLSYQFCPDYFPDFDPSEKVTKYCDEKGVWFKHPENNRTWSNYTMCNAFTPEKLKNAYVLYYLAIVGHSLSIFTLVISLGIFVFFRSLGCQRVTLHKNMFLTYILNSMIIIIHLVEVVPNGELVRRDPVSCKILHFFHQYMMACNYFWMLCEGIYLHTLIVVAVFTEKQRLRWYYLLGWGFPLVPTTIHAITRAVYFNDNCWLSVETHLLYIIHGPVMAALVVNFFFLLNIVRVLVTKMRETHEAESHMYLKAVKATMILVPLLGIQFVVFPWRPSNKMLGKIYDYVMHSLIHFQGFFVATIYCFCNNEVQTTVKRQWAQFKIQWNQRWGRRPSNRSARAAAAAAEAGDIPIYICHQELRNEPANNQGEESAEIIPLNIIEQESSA
T1 sequence (looked up) 2: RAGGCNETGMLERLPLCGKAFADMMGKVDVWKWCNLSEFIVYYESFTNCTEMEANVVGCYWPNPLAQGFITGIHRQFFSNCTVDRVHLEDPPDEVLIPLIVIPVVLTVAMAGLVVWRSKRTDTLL

B1: N^ε1-[(4S)-4-carboxy-4-[[(4S)-4-carboxy-4-(19-carboxynonadecanoylamino)butanoyl]amino]butanoyl]-[Glu14,Arg17,Pro21,Pro27,Pro34,Glu35]-h-amylin (peptide)
peptide: K([γGlu-γGlu-C20 diacid])CNTATCATQRLAEFLRHSSPNFGAIPSSTNVGPETY-NH2
modifications: disulfide 2-7 (inferred)
notes: modifications are with respect to human amylin
B2: N^ε1-[(4S)-4-carboxy-4-(15-carboxypentadecanoylamino)butanoyl]-[Arg17,Pro21,Pro27,His34]-h-amylin (peptide)
peptide: K([γGlu-C16 diacid])CNTATCATQRLANFLRHSSPNFGAIPSSTNVGHNTY-NH2
modifications: disulfide 2-7; N-terminus assumed
SMILES: CC[C@H](C)[C@H](NC(=O)[C@H](C)NC(=O)CNC(=O)[C@H](Cc1ccccc1)NC(=O)[C@H](CC(N)=O)NC(=O)[C@@H]1CCCN1C(=O)[C@H](CO)NC(=O)[C@H](CO)NC(=O)[C@H](Cc1c[nH]cn1)NC(=O)[C@H](CCCNC(=N)N)NC(=O)[C@H](CC(C)C)NC(=O)[C@H](Cc1ccccc1)NC(=O)[C@H](CC(N)=O)NC(=O)[C@H](C)NC(=O)[C@H](CC(C)C)NC(=O)[C@H](CCCNC(=N)N)NC(=O)[C@H](CCC(N)=O)NC(=O)[C@@H](NC(=O)[C@H](C)NC(=O)[C@@H]1CSSC[C@H](NC(=O)[C@@H](N)CCCCNC(=O)CC[C@H](NC(=O)CCCCCCCCCCCCCCC(=O)O)C(=O)O)C(=O)N[C@@H](CC(N)=O)C(=O)N[C@@H]([C@@H](C)O)C(=O)N[C@@H](C)C(=O)N[C@@H]([C@@H](C)O)C(=O)N1)[C@@H](C)O)C(=O)N1CCC[C@H]1C(=O)N[C@@H](CO)C(=O)N[C@@H](CO)C(=O)N[C@H](C(=O)N[C@@H](CC(N)=O)C(=O)N[C@H](C(=O)NCC(=O)N[C@@H](Cc1c[nH]cn1)C(=O)N[C@@H](CC(N)=O)C(=O)N[C@H](C(=O)N[C@@H](Cc1ccc(O)cc1)C(N)=O)[C@@H](C)O)C(C)C)[C@@H](C)O
notes: as for B1
B3: N^ε1-[(4S)-4-carboxy-4-(17-carboxyheptadecanoylamino)butanoyl]-[Arg17,Pro21,Pro27,His34]-h-amylin (peptide)
peptide: K([γGlu-C18 diacid])CNTATCATQRLANFLRHSSPNFGAIPSSTNVGHNTY-NH2
modifications: disulfide 2-7; N-terminus assumed
SMILES: CC[C@H](C)[C@H](NC(=O)[C@H](C)NC(=O)CNC(=O)[C@H](Cc1ccccc1)NC(=O)[C@H](CC(N)=O)NC(=O)[C@@H]1CCCN1C(=O)[C@H](CO)NC(=O)[C@H](CO)NC(=O)[C@H](Cc1c[nH]cn1)NC(=O)[C@H](CCCNC(=N)N)NC(=O)[C@H](CC(C)C)NC(=O)[C@H](Cc1ccccc1)NC(=O)[C@H](CC(N)=O)NC(=O)[C@H](C)NC(=O)[C@H](CC(C)C)NC(=O)[C@H](CCCNC(=N)N)NC(=O)[C@H](CCC(N)=O)NC(=O)[C@@H](NC(=O)[C@H](C)NC(=O)[C@@H]1CSSC[C@H](NC(=O)[C@@H](N)CCCCNC(=O)CC[C@H](NC(=O)CCCCCCCCCCCCCCCCC(=O)O)C(=O)O)C(=O)N[C@@H](CC(N)=O)C(=O)N[C@@H]([C@@H](C)O)C(=O)N[C@@H](C)C(=O)N[C@@H]([C@@H](C)O)C(=O)N1)[C@@H](C)O)C(=O)N1CCC[C@H]1C(=O)N[C@@H](CO)C(=O)N[C@@H](CO)C(=O)N[C@H](C(=O)N[C@@H](CC(N)=O)C(=O)N[C@H](C(=O)NCC(=O)N[C@@H](Cc1c[nH]cn1)C(=O)N[C@@H](CC(N)=O)C(=O)N[C@H](C(=O)N[C@@H](Cc1ccc(O)cc1)C(N)=O)[C@@H](C)O)C(C)C)[C@@H](C)O
notes: as for B1
B4: N^ε1-[(4S)-4-carboxy-4-(13-carboxytridecanoylamino)butanoyl]-[Arg17,Pro21,Pro27,His34]-h-amylin (peptide)
peptide: K([γGlu-C14 diacid])CNTATCATQRLANFLRHSSPNFGAIPSSTNVGHNTY-NH2
modifications: disulfide 2-7; N-terminus assumed
SMILES: CC[C@H](C)[C@H](NC(=O)[C@H](C)NC(=O)CNC(=O)[C@H](Cc1ccccc1)NC(=O)[C@H](CC(N)=O)NC(=O)[C@@H]1CCCN1C(=O)[C@H](CO)NC(=O)[C@H](CO)NC(=O)[C@H](Cc1c[nH]cn1)NC(=O)[C@H](CCCNC(=N)N)NC(=O)[C@H](CC(C)C)NC(=O)[C@H](Cc1ccccc1)NC(=O)[C@H](CC(N)=O)NC(=O)[C@H](C)NC(=O)[C@H](CC(C)C)NC(=O)[C@H](CCCNC(=N)N)NC(=O)[C@H](CCC(N)=O)NC(=O)[C@@H](NC(=O)[C@H](C)NC(=O)[C@@H]1CSSC[C@H](NC(=O)[C@@H](N)CCCCNC(=O)CC[C@H](NC(=O)CCCCCCCCCCCCC(=O)O)C(=O)O)C(=O)N[C@@H](CC(N)=O)C(=O)N[C@@H]([C@@H](C)O)C(=O)N[C@@H](C)C(=O)N[C@@H]([C@@H](C)O)C(=O)N1)[C@@H](C)O)C(=O)N1CCC[C@H]1C(=O)N[C@@H](CO)C(=O)N[C@@H](CO)C(=O)N[C@H](C(=O)N[C@@H](CC(N)=O)C(=O)N[C@H](C(=O)NCC(=O)N[C@@H](Cc1c[nH]cn1)C(=O)N[C@@H](CC(N)=O)C(=O)N[C@H](C(=O)N[C@@H](Cc1ccc(O)cc1)C(N)=O)[C@@H](C)O)C(C)C)[C@@H](C)O
notes: as for B1
B5: N^-1-[(4S)-4-carboxy-4-(19-carboxynonadecanoylamino)butanoyl]-Gly[Arg1,His14,Arg17,Pro21,Pro27,His34]-h-amylin (peptide)
peptide: {C20 diacid-γGlu}-GRCNTATCATQRLAHFLRHSSPNFGAIPSSTNVGHNTY-NH2
modifications: disulfide 3-8
SMILES: CC[C@H](C)[C@H](NC(=O)[C@H](C)NC(=O)CNC(=O)[C@H](Cc1ccccc1)NC(=O)[C@H](CC(N)=O)NC(=O)[C@@H]1CCCN1C(=O)[C@H](CO)NC(=O)[C@H](CO)NC(=O)[C@H](Cc1c[nH]cn1)NC(=O)[C@H](CCCNC(=N)N)NC(=O)[C@H](CC(C)C)NC(=O)[C@H](Cc1ccccc1)NC(=O)[C@H](Cc1c[nH]cn1)NC(=O)[C@H](C)NC(=O)[C@H](CC(C)C)NC(=O)[C@H](CCCNC(=N)N)NC(=O)[C@H](CCC(N)=O)NC(=O)[C@@H](NC(=O)[C@H](C)NC(=O)[C@@H]1CSSC[C@H](NC(=O)[C@H](CCCNC(=N)N)NC(=O)CNC(=O)CC[C@H](NC(=O)CCCCCCCCCCCCCCCCCCC(=O)O)C(=O)O)C(=O)N[C@@H](CC(N)=O)C(=O)N[C@@H]([C@@H](C)O)C(=O)N[C@@H](C)C(=O)N[C@@H]([C@@H](C)O)C(=O)N1)[C@@H](C)O)C(=O)N1CCC[C@H]1C(=O)N[C@@H](CO)C(=O)N[C@@H](CO)C(=O)N[C@H](C(=O)N[C@@H](CC(N)=O)C(=O)N[C@H](C(=O)NCC(=O)N[C@@H](Cc1c[nH]cn1)C(=O)N[C@@H](CC(N)=O)C(=O)N[C@H](C(=O)N[C@@H](Cc1ccc(O)cc1)C(N)=O)[C@@H](C)O)C(C)C)[C@@H](C)O
notes: modifications are with respect to human amylin; also called compound 100
B6: N{-1}-[(4S)-4-carboxy-4-(19-carboxynonadecanoylamino)butanoyl]-Gly[Arg1,His14,Arg17,Pro21,Pro27]-h-amylin (peptide)
peptide: {C20 diacid-γGlu}-GRCNTATCATQRLAHFLRHSSPNFGAIPSSTNVGSNTY-NH2
modifications: disulfide 3-8
SMILES: CC[C@H](C)[C@H](NC(=O)[C@H](C)NC(=O)CNC(=O)[C@H](Cc1ccccc1)NC(=O)[C@H](CC(N)=O)NC(=O)[C@@H]1CCCN1C(=O)[C@H](CO)NC(=O)[C@H](CO)NC(=O)[C@H](Cc1c[nH]cn1)NC(=O)[C@H](CCCNC(=N)N)NC(=O)[C@H](CC(C)C)NC(=O)[C@H](Cc1ccccc1)NC(=O)[C@H](Cc1c[nH]cn1)NC(=O)[C@H](C)NC(=O)[C@H](CC(C)C)NC(=O)[C@H](CCCNC(=N)N)NC(=O)[C@H](CCC(N)=O)NC(=O)[C@@H](NC(=O)[C@H](C)NC(=O)[C@@H]1CSSC[C@H](NC(=O)[C@H](CCCNC(=N)N)NC(=O)CNC(=O)CC[C@H](NC(=O)CCCCCCCCCCCCCCCCCCC(=O)O)C(=O)O)C(=O)N[C@@H](CC(N)=O)C(=O)N[C@@H]([C@@H](C)O)C(=O)N[C@@H](C)C(=O)N[C@@H]([C@@H](C)O)C(=O)N1)[C@@H](C)O)C(=O)N1CCC[C@H]1C(=O)N[C@@H](CO)C(=O)N[C@@H](CO)C(=O)N[C@H](C(=O)N[C@@H](CC(N)=O)C(=O)N[C@H](C(=O)NCC(=O)N[C@@H](CO)C(=O)N[C@@H](CC(N)=O)C(=O)N[C@H](C(=O)N[C@@H](Cc1ccc(O)cc1)C(N)=O)[C@@H](C)O)C(C)C)[C@@H](C)O
notes: modifications are with respect to human amylin; also called compound 99

Numbered stars: 1 amine (or outer) side, 2 acyl side, 3 side chain; on linkers, the order of the positions; unused ones are H or OH. Bridge positions count the residues as written; N and C are the ends. Side chains are listed from the residue outwards. Ends that are not written are not given here. * marks the point of attachment. C20 diacid = O=C(O)CCCCCCCCCCCCCCCCCCC(=O)*; C18 diacid = O=C(O)CCCCCCCCCCCCCCCCC(=O)*; C16 diacid = O=C(O)CCCCCCCCCCCCCCC(=O)*; γGlu = O=C(O)[C@H](CCC(=O)[*:2])N[*:1]; C14 diacid = O=C(O)CCCCCCCCCCCCC(=O)*

For the assay, the target named is T1, human amylin receptor (Amylin 3(a) …). Briefly: SPA competition binding, displacement of 125I-rat amylin from membranes of BHK cells with human calcitonin receptor + RAMP-3 (Assay V). The procedure:
The binding assay was performed using scintillation proximity assay (SPA) beads (RPNQ0001) from PerkinElmer and cell membranes from the Amylin 3(a)/CRE-luc cells (as described in Assay (II)) were used. Membranes were prepared in the following way; the cells were rinsed with PBS and incubated with Versene for approximately 5 min before harvesting. The cells were flushed with PBS and the cell-suspension was centrifuged for 5 min at 1000 rpm. Cells were homogenized (ultrathurrax) in a buffer containing 20 mM Na-HEPES and 10 mM EDTA (pH 7.4) and centrifuged at 20.000 rpm for 15 min. The resulting pellet was resuspended, homogenized and centrifuged (20.000 rpm, 15 min) in a buffer containing 20 mM Na-HEPES and 0.1 mM EDTA (pH 7.4, buffer 2). The resulting pellet was resuspended in buffer 2 and protein concentration was measured (BCA protein Assay, Pierce). The homogenate was kept cold during the whole procedure. The membranes were kept at −80° C. until use. The assay was performed in a 384 well Optiplate (PerkinElmer) in a total volume of 40 ul. Membranes were mixed with SPA beads. Final concentration of membranes 35 ng/μL final and SPA beads was 0.05 mg/well. Test-compounds were dissolved in DMSO and further diluted in assay buffer (50 mM Hepes, pH 7.4, 1 mM CaCl2, 5 mM MgCl₂, 0.1% OA and 0.02% Tween20). […] The final mixture was incubated with shaking at 400 rpm for 120 min at 25° C. prior to centrifugation (1500 rpm, 10 min). Samples were analyzed on TopCounter™ (Packard). The IC₅₀ was calculated using (one site binding competition analysis) GraphPad Prism5 as a measure of receptor affinity.
For orientation: Displacement assays read how much labelled ligand stays bound in the presence of the test substance.
As usually defined, the IC50 is the point on the concentration scale where inhibition reaches its midpoint. As to B1, the IC50 was determined as 121 pM.
Regarding B2, the IC50 is 580 pM.
Consider B3, for which the IC50 is 382 pM.
Take B4: the IC50 is 1040 pM.
As for B5, the IC50 stood at 1010 pM.
To B6 belongs 348 pM.

The record behind these values is US20140087995A1 (published 2014).
